Results reported in patent US20050239134.

Target: TGF-beta-1 (TGF-β1 homodimer) (Homo sapiens?) (UniProt P01137)
Assay: EMSA
Details: PS at dA and dC (5' of A and C; from dATP(αS)/dCTP(αS)); apparent; naive library control; room temp 30 min

Sequence of TGF-beta-1 (TGF-β1 homodimer) (Homo sapiens?) (P01137 279-390): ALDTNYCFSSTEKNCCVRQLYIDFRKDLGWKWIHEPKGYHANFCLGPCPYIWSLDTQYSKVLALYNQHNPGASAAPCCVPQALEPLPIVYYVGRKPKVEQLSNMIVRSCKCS

## CAGTCCGGATGCTCTAGAGTGACNNNNNNNNNNNNNNNNNNNNNNNNNNNNNNCGAATCTCGTGAAGCCGAGCG [initial 74-mer N30 thiophosphate ssDNA library]
  Kd: 11 µM
